Our source for the binding signal (fold excess for ~55% competition), binding of purified TRC-1 to site2 probe in EMSA, phosphorimage analysis and binding signal (% competition values is patent US5693759.

Series [1] addresses T1, TRC-1 (p21SNF1/JunB heteromultimer) (Homo sapiens) (UniProt Q9NR55+P17275).
T1 sequence 1: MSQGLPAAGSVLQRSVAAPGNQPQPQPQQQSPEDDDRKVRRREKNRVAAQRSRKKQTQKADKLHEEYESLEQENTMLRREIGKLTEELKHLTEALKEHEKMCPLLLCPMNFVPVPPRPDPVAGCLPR
T1 sequence 2: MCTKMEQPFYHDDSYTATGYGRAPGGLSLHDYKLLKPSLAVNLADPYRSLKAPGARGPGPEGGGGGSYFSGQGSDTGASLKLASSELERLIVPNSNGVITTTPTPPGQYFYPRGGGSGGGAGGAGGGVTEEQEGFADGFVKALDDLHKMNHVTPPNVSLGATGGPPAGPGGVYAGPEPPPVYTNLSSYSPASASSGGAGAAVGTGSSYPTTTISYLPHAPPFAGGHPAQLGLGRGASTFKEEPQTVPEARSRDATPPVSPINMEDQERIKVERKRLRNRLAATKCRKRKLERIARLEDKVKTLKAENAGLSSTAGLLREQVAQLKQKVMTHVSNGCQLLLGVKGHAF
Briefly: competition. Conditions: vs 12.5-fold for s2.

The target of series [2] is Tax-response complex-1 (TRC-1), purified from SLB-I nuclear extract (human) (UniProt P17275).
Series [3] addresses T1, TRC-1 (p21SNF1/JunB heteromultimer) (Homo sapiens). In words: EMSA. Conditions: self-competition; abolished at 100-fold. For orientation: In EMSA bound probe runs differently from free probe, usually more slowly.

In turn, HTLV-1 LTR 21-bp repeat site1 (s1) gave a binding signal (fold excess for ~55% competition) in series [1] of 100. In turn, “HTLV-1 Tax protein, expressed in bacteria as a His6 fusion at its carboxy terminus (from UniProt P03409)” had a binding of purified TRC-1 to site2 probe in EMSA, phosphorimage analysis in series [2] of 2.5 to 6.5 fold. In series [3], HTLV-1 LTR 21-bp repeat site2 (s2) displayed a binding signal (% competition at 12.5-fold excess) of 55. Regarding HTLV-1 LTR 21-bp repeat site3 (s3), the binding signal (fold excess for ~55% competition) in series [1] came out at 50.
